Where two headings read alike, the source gives them in different places.
Legend:
Test in all cases: SPR
[1] = target: M domain of α-catenin (human)
[2] = target: actin-binding domain (ABD) of α-catenin (human)
[3] = target: actin-binding domain (ABD) of α-catenin (human); remark: listed apart in the source

## β-catenin•epithelial cadherin cytoplasmic domain complex (BE) (from UniProt P35222;P12830)
[1]
  Kd: 104 nM
  koff: 0.0013 s⁻¹
[2]
  Kd: 466 nM
[3]
  Kd: 486 nM
